Measured values published in patent US7265215.

Assays:
[1] = target: native envelope glycoprotein (Egp) on purified DEN-2 virus (dengue 2 virus) (UniProt P14340); assay: antigen dot blot, purified DEN-2 virus, mAb 1:100, 125I goat anti-mouse immunoglobulin
[2] = target: dengue 2 virus recombinant envelope glycoprotein (rEgp) expressed by baculovirus (dengue 2 virus (strain PR 159)) (UniProt P12823); assay: antigen dot blot, extract of infected High-5 cells, mAb 1:100, 125I goat anti-mouse immunoglobulin
[3] = target: protein expressed by the recombinant baculovirus clone containing DEN-2 prME genes (ACNPV-prME) (dengue 2 virus); assay: as above
[4] = target: protein extracted from High-5 cells infected with wild-type baculovirus; assay: antigen dot blot, negative control extract of wild-type baculovirus infected High-5 cells, mAb 1:100
[5] = target: native envelope glycoprotein (Egp) on purified DEN-2 virus (dengue 2 virus) (UniProt P14340); assay: particle fluorescence assay (PFCIA), FITC-labeled mAb on antigen-coated polystyrene beads, pH 5.0, purified DEN-2 virus
[6] = target: dengue 2 virus recombinant envelope glycoprotein (rEgp) expressed by baculovirus (dengue 2 virus (strain PR 159)) (UniProt P12823); assay: particle fluorescence assay (PFCIA), FITC-labeled mAb on antigen-coated polystyrene beads, pH 5.0, partially-purified recombinant E protein
[7] = target: dengue 2 virus recombinant envelope glycoprotein (rEgp) expressed by baculovirus (dengue 2 virus (strain PR 159)) (UniProt P12823); assay: particle fluorescence assay (PFCIA), FITC-labeled mAb on antigen-coated polystyrene beads, pH 5.0, lysate of cells infected with the E-protein recombinant baculovirus

Substance | Reactivity with antigen (cpm) [1] | Reactivity with antigen (cpm) [2] | Reactivity with antigen (cpm) [3] | Reactivity with antigen (cpm) [4] | Binding affinity [5] | Binding affinity [6] | Binding affinity [7]
monoclonal antibody 3H5 | 7500 cpm | 13600 cpm | 10100 cpm | 1400 cpm |  |  | 
monoclonal antibody 4G2 | 16800 cpm | 8500 cpm | 5000 cpm | 1000 cpm | 1.3e-06 | 2.3e-06 | 2.9e-06
